In PMC11814294 (2025):

Molecular target: GST-His-ZTL (Arabidopsis thaliana, UniProt Q94BT6 1-609, RED-NHS 2nd Generation fluorescent label (in the MST assay only))
Assay: MST

Sequence of GST-His-ZTL (Q94BT6 whole entry): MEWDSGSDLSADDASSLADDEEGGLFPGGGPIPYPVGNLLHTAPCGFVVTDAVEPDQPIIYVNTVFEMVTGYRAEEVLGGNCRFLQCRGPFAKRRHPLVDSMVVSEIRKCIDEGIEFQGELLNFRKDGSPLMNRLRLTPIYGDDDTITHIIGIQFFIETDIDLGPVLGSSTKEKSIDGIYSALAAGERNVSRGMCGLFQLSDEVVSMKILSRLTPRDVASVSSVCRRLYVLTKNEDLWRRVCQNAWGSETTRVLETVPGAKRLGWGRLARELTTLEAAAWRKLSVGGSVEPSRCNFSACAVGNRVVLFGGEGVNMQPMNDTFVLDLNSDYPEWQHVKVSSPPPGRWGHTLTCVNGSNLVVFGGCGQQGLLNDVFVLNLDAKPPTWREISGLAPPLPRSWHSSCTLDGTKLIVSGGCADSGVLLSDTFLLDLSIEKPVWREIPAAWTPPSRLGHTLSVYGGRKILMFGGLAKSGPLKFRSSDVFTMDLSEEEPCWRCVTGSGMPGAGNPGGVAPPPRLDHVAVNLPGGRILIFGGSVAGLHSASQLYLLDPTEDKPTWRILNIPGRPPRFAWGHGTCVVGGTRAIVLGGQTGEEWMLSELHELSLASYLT

B1: His-CHE (natural protein)
chain: not shown
  Kd: 190 nM
